Experimental data published in the supplement of paper PMC9732359.
± gives the uncertainty stated by the source.

Assay: protein stability index of a GFP-peptide fusion (yeast GPS) (PSI 1-4); higher = more stable; sorted into four equal gates, so the index is relative within each strain
Outline: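 Mid-log yeast cultures in leucine-free medium, carrying a pooled plasmid library, were sorted into four equal gates by their GFP/Cherry fluorescence ratio. Each plasmid expressed Cherry along with GFP fused upstream of a tiled 17-residue yeast protein peptide. Plasmids recovered from each gate were PCR-amplified and Illumina-sequenced, with reads assigned to strains by barcodes. The protein stability index was obtained by summing each gate's read frequency weighted by its gate number.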

Sequence	protein stability index (doa10∆)	protein stability index (pdr5∆)	protein stability index (san1∆)	protein stability index (ubr1∆)
QLNASISLIPELSVVLS [RRI2]	2.67 ± 0.064	2.96 ± 0.06	2.98 ± 0.044	2.73 ± 0.039
SPFLMGHPMTKSVYETP [SEC65]	2.28 ± 0.067	2.55 ± 0.068	2.83 ± 0.083	2.68 ± 0.052
QKIRNSEGISEATREVF [ITC1]	3.11 ± 0.2	3.47 ± 0.19	2.81 ± 0.15	
NFGNNGAGGLNPFTSAT [YOR098C/NUP1]	2.89 ± 0.055	3.21 ± 0.09	3.15 ± 0.045	3.04 ± 0.052
GDLVYARVCTAEKELEA [RRP40]	1.3 ± 0.09	1.51 ± 0.19	1.46 ± 0.19	1.2 ± 0.23
LLFEDLFKKFNNDFKLS [RET1]		1.39 ± 0.23		2.73 ± 0.13
QIIFGVVEKKTVGSSNG [RPO21]	1.66 ± 0.11	1.66 ± 0.098	1.66 ± 0.19	1.6 ± 0.066
MAKVHGSLARAGKVKSQ [RPS30A]	2.38 ± 0.067	2.7 ± 0.068	2.49 ± 0.066	2.44 ± 0.054
STIITKAINQELEDVAV [YCS4]	2.96 ± 0.23	3.22 ± 0.11	2.72 ± 0.057	3.04 ± 0.061
QLGYIENSFYKKEASKT [POP1]	2.27 ± 0.061	2.43 ± 0.058	2.43 ± 0.056	2.39 ± 0.044
AYFLIIVPVISTIENVL [COB]	1.52 ± 0.057	1.75 ± 0.045	1.92 ± 0.059	2.12 ± 0.07
EKQHENAVLELGTVQRE [SMC3]		3.54 ± 0.26		
IRIYFTEKDDNKTNNED [NUT1]	2.82 ± 0.1	2.95 ± 0.071	2.84 ± 0.13	2.87 ± 0.074
LTCLPVPPPPVRPSISF [RPO21]	2.28 ± 0.03	2.44 ± 0.031	2.36 ± 0.033	2.33 ± 0.026
SYVETLDSMIELFKDYK [MED1]	3.24 ± 0.085	3.22 ± 0.1	3.34 ± 0.052	3.19 ± 0.054
NGLAIRRAAYGVVRYVM [RPS3]	2.06 ± 0.057	1.91 ± 0.064	1.77 ± 0.074	1.61 ± 0.053
LNGILADEMGLGKTIQT [SNF2]	2.91 ± 0.11	2.67 ± 0.1	3.29 ± 0.066	2.56 ± 0.095
ELQEKNVELLNCIRILA [YIL149C/MLP2]	2.19 ± 0.054	1.95 ± 0.065	1.73 ± 0.085	1.68 ± 0.039
IFDGNYGESDIHFREHQ [YMR129W/POM152]	3.26 ± 0.11	3.21 ± 0.21	3.58 ± 0.2	3.05 ± 0.15
VQKRDEVKEQLGILKKK [SMC4]	2.75 ± 0.095	3.01 ± 0.077	3.24 ± 0.061	2.78 ± 0.05
LVQLEPHLFVNGDLTVS [SSN2]	1.77 ± 0.1	1.9 ± 0.069	1.53 ± 0.16	1.5 ± 0.16
GRDTTDYLKNIIVENSG [RPN2]	3.21 ± 0.13	2.83 ± 0.17	3.34 ± 0.12	3.4 ± 0.23
DDVISNAGTNDNSFNEL [MCD1]	3.31 ± 0.15	3.37 ± 0.12	3.31 ± 0.06	3.44 ± 0.084
MSVQDTKAVEFSMGHIR [MED4]	3.24 ± 0.11	3.37 ± 0.093	3.22 ± 0.069	2.9 ± 0.088
VTIASEIYYDPDPRSTV [RPO21]	2.41 ± 0.14	2.86 ± 0.14		2.52 ± 0.11
AAREKKIRELEAELSST [YIL149C/MLP2]	2.46 ± 0.29	3.25 ± 0.25		2.89 ± 0.15
NEIKQLGSDSSDGHNSE [SRB4]	2.6 ± 0.072	2.8 ± 0.084	2.31 ± 0.078	3 ± 0.09

Sequence	protein stability index (doa10∆)	protein stability index (pdr5∆)	protein stability index (san1∆)	protein stability index (ubr1∆)
KWDITTRNSNNLAIVEL [BRR2]	3.16 ± 0.071	2.83 ± 0.059	3.21 ± 0.051	3.54 ± 0.064
GEIDFIKNIGKSLKNNF [YML103C/NUP188]	2.59 ± 0.21	2.57 ± 0.18	2.17 ± 0.15	
DNETKAMLINLILRDFL [RPN3]	2.55 ± 0.095	2.66 ± 0.087	2.58 ± 0.069	2.81 ± 0.075
FPQGLNIVMDSKQNGIE [SSN8]	3.11 ± 0.091	3.04 ± 0.21	3.26 ± 0.078	2.61 ± 0.1
LREHFKNTEEGKALVHH [QCR6]	2.87 ± 0.11	3.23 ± 0.1	3.34 ± 0.057	3.09 ± 0.099
PVENIWADIFAKALDGQ [RPP1A]	3.13 ± 0.1	3.25 ± 0.12	2.49 ± 0.23	2.62 ± 0.1
EDEDEDDETPSCEVEEI [SNU114]	3.05 ± 0.051	2.22 ± 0.05	2.99 ± 0.056	2.85 ± 0.044
KNYTTETDNEMNGNGKP [SIR3]	3.24 ± 0.078	3.37 ± 0.054	3.48 ± 0.043	3.22 ± 0.055
RPDLIKEDHPLEFYKDK [SIR3]	3.17 ± 0.07	3.23 ± 0.055	3.21 ± 0.039	3.08 ± 0.074
EPLSDTEEPDLAIADVE [DSN1]	2.96 ± 0.081	2.81 ± 0.067	3.09 ± 0.043	3.24 ± 0.099
LTKTTVNISAVDNTTEQ [YCG1]	3.25 ± 0.11	3.29 ± 0.14	2.88 ± 0.1	3.24 ± 0.098
GGSGAATFSVSQASSDL [CSL4]	3.4 ± 0.08	3.31 ± 0.074	3.43 ± 0.061	3.36 ± 0.06
MCGVIVKQYNKKWPQFY [SIN4]	1.65 ± 0.13	1.99 ± 0.096	1.62 ± 0.097	1.74 ± 0.046
IAKIKKVCECVCMHCGK [RPO21]	1.92 ± 0.057	2.28 ± 0.067	2.7 ± 0.091	2.43 ± 0.046
APSGIRMHLAPASKQGY [SSN2]	2.24 ± 0.17	2.48 ± 0.11	2.22 ± 0.13	2.36 ± 0.097
GNVVMDIGKGAETTFLQ [RPC53]	3.26 ± 0.2		3.02 ± 0.22	3.29 ± 0.083
NRMQISPDQMRNLQMGL [GRR1]		3.18 ± 0.12	3.27 ± 0.11	2.83 ± 0.12
KNFSPTKRVEKPQLKFK [RRP6]	2.33 ± 0.093	2.17 ± 0.1	2.39 ± 0.1	3.21 ± 0.075
GSIGSRKYSFNYSSLPS [YAR002W/NUP60]	1.95 ± 0.059	2.39 ± 0.062	2.12 ± 0.081	1.65 ± 0.039
PGPYPNEQAARAANQGA [CYT1]	2.35 ± 0.053	2.68 ± 0.045	2.33 ± 0.059	2.3 ± 0.05
AKFRLILIESRIHRLAR [RPS13]	1.52 ± 0.099	1.97 ± 0.18	1.7 ± 0.18	2.5 ± 0.15
MVDESDKKQQTIDEQSQ [RPN1]	3.17 ± 0.16	3.25 ± 0.16	3.38 ± 0.11	3.43 ± 0.12
DESLIRELYKYVRKHDP [PRP28]	3.4 ± 0.14	3.48 ± 0.16	2.83 ± 0.17	3.09 ± 0.12
LEAVNSMIEKGGDWERR [RPN7]	3.02 ± 0.1	3.1 ± 0.093	2.8 ± 0.08	2.87 ± 0.06
ESLKNLNESRSQHKKIL [SMC3]	2.78 ± 0.13	3.05 ± 0.098	2.85 ± 0.1	3.04 ± 0.096
KIGDLGLARKFHNMLQT [SSN3]	2.9 ± 0.085	3.14 ± 0.1	3.23 ± 0.058	3.37 ± 0.045
